Results taken from the supplement of paper PMC9170038.

Tests used:
MS2 coat protein [1] = assay: apparent KD of MS2 coat protein, switch ON state; designed switch direction (-1 OFF switch, 1 ON switch): -1; higher = weaker reporter binding; details: FMN input: 0 or 200 uM; Eterna round: R93 (includes R88 designs)
In short: (§1)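 Designed RNA switches were transcribed on-chip from Illumina sequencing clusters. SNAP-549-labelled MS2 coat protein was titrated onto them in twofold steps from 0.7 or 1.5 nM to 3 µM in 100 mM Tris-HCl pH 7.5, 80 mM KCl, 4 mM MgCl2, either without or with constant ligand. Apparent KD reflects the per-design median of normalised cluster binding-curve fits.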

MS2 coat protein [2] = assay: apparent KD of MS2 coat protein, switch OFF state (with FMN for OFF switches, without FMN for ON switches); designed switch direction (-1 OFF switch, 1 ON switch): -1; higher = weaker reporter binding; details: FMN input: 0 or 200 uM; Eterna round: R93 (includes R88 designs)
In short: as §1

Sequence	apparent KD of MS2 coat protein (MS2 coat protein [1])	apparent KD of MS2 coat protein (MS2 coat protein [2])
ACUAAUGAAGGAUAUACAAACAAAAAAAAAACAACAAACAAACAUGAGGAUCACCCAUGUAGAAGGUCAAAAAU [JR_Exc002_Sub1202]	22.2 nM	17.8 nM
AGAAAACAUGAGGAUCACCCAUGUGAGGAUAUCGAAAAGAAAAGAAAAGAAAGAAGAAUGAGAAGGCACAAGAA [Khaba]	29.5 nM	28.1 nM
AGAAAACAUGAGGAUCACCCAUGUGAGGAUAUCGAUGUCCAAAAAAAAGUGCGGGACUCGAGAAGGCACUUGGG	38.9 nM	33.7 nM
AGAAAACAUGAGGAUCACCCAUGUGAGGAUAUCUAAAAGAAAAGAAAAGAAAGAAGAAGGAGAAGGCACAAGAA [Sanakhte]	37.4 nM	29.4 nM
AGAAAGUCAGGAUAUACGAAAAAAAAGGGAAACAACAAGGGACAUGAGGAUCACCCAUGUAGAAGGGACAAGAA [Diamond 98]	92.8 nM	140 nM
AGAAAGUGAGGAUAUACAGAUAAAAAAACGAAAAAAAAUCUGUAGAAGGCACAUGAGGAUCACCCAUGUAAAGA [Mat - Exclusion 4 - Mayanna - D108]	37.9 nM	37.1 nM
AGAAAUGUAGGAUAUACAUGAGGAUCACCCAUGUGGGAGGAGGAGCAAACAAGACGAGGUAGAAGGACAACGAC [JR_Exc003-Sub903]	73.5 nM	79.2 nM
AGCAAACAUGAGGAUCACCCAUGUUAGGAUAUGAACGAAAUAAAAUAAAAAUAAAAGUUCAGAAGGGACGAGCA [Mat - Exclusion 1 - Eli mod - D27]	22.4 nM	37.1 nM
AGCAAGUUAGGAUAUGCGAAGUCAGGACACACACUGACGAAGCAGAAGGAACAUGAGGAUCACCCAUGUAAGCA [JR_Exclusion-4 65% 4]	22 nM	16.6 nM
AGCACGGUAGGAUAUACGAACAAAACGGGAGAACUAAAGGGACAUGAGGAUCACCCAUGUAGAAGGACCAAGCA [Diamond 90]	42 nM	119 nM
AGCACGUCAGGAUAUACGAAAAAAAAGGGAAACAACAAGGGACAUGAGGAUCACCCAUGUAGAAGGGACUAGCA [Diamond 97]	49.4 nM	44.3 nM
AGCUAGUCAGGAUAUACGAAAAUGACAGAAGACGUAAGGGAACAUGAGGAUCACCCAUGUAGAAGGGACUAGCA [Diamond 42]	26.6 nM	67.7 nM
AGCUAGUCAGGAUAUACGAACAUGUCAAAAGACGUGAACGGACAUGAGGAUCACCCAUGUAGAAGGGACUAGCA [Diamond 5]	16.2 nM	17.5 nM
AGCUAGUCAGGAUAUACGAACAUGUCAAAAGACGUGAGGGAACAUGAGGAUCACCCAUGUAGAAGGGACUAGCA [Moving G segment in JL's topscorer (74%)]	36.6 nM	37.5 nM
AGCUAGUCAGGAUAUACGAGAAAGAAAGAAGACGUGAAGGGACAUGAGGAUCACCCAUGUAGAAGGGACUAGCA [Diamond 26]	30.3 nM	67.1 nM
AGCUAGUCAGGAUAUACGAGAAUGACAAAAGACGUGAAGGGACAUGAGGAUCACCCAUGUAGAAGGGACUAGCA [Diamond 24]	39.2 nM	117 nM
AGCUAGUGAGGAUAUACGAACAAGUCAACGGACUGUAAGGGACAUGAGGAUCACCCAUGUAGAAGGCACUAGCA [Diamond 58]	29.4 nM	148 nM
AGCUAGUGAGGAUAUACGAACAUGUCAAAAGACGUGAAGAAACAUGAGGAUCACCCAUGUAGAAGGCACUAGCA [Mat - Exclusion 2 - JL-Eli mod - D55]	15.5 nM	14.9 nM
AGGAGACAUGAGGAUCACCCAUGUUAGGAUAUGAACGAAAUAAAAUAAAAAUAAAAGUUCAGAAGGAACGAAAA [Mat - Exclusion 1 - Eli mod - D10]	34.6 nM	56.6 nM
AGGGAGUAAGGAUAUGCAUAUAAUGAAGAGAAAGAAAAGAAGCAGAAGGUACAUGAGGAUCACCCAUGUAAAAA [milkweed 2]	28.4 nM	22.7 nM
AGUAGUACAGGAUAUACAUGAGGAUCACCCAUGUGAGAAUUAAGUGGCGUACCACAAAGUAGAAGGGUACUACA [Mat - Exclusion 3 - JL mod - D38]	40.1 nM	211 nM
AGUCGGCGAGGAUAUACAUGAGGAUCACCCAUGUGAGAGAAAAAAGUGAGUUAGACAAGUAGAAGGCGCUGACA [JL Lego Mod 7]	44.1 nM	172 nM
AGUGAGUGAGGAUAUGCUAGAAGAAUAAAAGAAAUAACGUAGCAGAAGGCACAUGAGGAUCACCCAUGUACACA [May 66]	25.6 nM	22.5 nM
AGUUGGCGAGGAUAUACAUGAGGAUCACCCAUGUAAGAGAAAAAAAGGAGAAAAAAAAGUAGAAGGCGCUGACA [Mat - Exclusion 3 - Lego mod - D45]	35.4 nM	41.9 nM
AGUUGGCGAGGAUAUACAUGAGGAUCACCCAUGUGAAAGAAAAAAGUGAAAAAGCAAAGUAGAAGGCGCUGACA [73%, Moding Norbert Elias, 5]	34.9 nM	192 nM
AUAAAACAUGAGGAUCACCCAUGUGAGGAUAUCCUAAAAGAAAGAAAAAAAAAAAAAUGGAGAAGGCACAAUAA [Amethyst 47]	119 nM	159 nM
AUAAAACAUGAGGAUCACCCAUGUGAGGAUAUGCGAAAAUAAAUAAAAUAAAAUAAAAGCAGAAGGUACAAAUA [LROPPY Exclusion 1 - v04_deltaG=2.5 breakup some As]	29.3 nM	40.2 nM
AUAAAACAUGAGGAUCACCCAUGUGAGGAUAUGCUAAAAUAAAAUAAAAUAAAAUAAUGCAGAAGGCACAAAUA [Fancy Pants]	37.6 nM	53.8 nM
AUAAACUGAGGAUAUACAUGAGGAUCACCCAUGUAAAAAAAAAAAUGAUCCUCAAAAAGUAGAAGGCAGAAUAA [JR_Exc003_Sub016]	23.4 nM	35.8 nM
AUAGUACAUGAGGAUCACCCAUGUCAGGAUAUGCGAAACGAAAAAAAAAAAAAGUGAAGUAGAAGGGACUAUAA [EX1 Malc#9]	29.8 nM	30.4 nM
